Here are results for four substances from IntAct's records for PubMed 19430481.

Sequence of rpgr_mouse Rpgr (Q9R0X5 whole entry): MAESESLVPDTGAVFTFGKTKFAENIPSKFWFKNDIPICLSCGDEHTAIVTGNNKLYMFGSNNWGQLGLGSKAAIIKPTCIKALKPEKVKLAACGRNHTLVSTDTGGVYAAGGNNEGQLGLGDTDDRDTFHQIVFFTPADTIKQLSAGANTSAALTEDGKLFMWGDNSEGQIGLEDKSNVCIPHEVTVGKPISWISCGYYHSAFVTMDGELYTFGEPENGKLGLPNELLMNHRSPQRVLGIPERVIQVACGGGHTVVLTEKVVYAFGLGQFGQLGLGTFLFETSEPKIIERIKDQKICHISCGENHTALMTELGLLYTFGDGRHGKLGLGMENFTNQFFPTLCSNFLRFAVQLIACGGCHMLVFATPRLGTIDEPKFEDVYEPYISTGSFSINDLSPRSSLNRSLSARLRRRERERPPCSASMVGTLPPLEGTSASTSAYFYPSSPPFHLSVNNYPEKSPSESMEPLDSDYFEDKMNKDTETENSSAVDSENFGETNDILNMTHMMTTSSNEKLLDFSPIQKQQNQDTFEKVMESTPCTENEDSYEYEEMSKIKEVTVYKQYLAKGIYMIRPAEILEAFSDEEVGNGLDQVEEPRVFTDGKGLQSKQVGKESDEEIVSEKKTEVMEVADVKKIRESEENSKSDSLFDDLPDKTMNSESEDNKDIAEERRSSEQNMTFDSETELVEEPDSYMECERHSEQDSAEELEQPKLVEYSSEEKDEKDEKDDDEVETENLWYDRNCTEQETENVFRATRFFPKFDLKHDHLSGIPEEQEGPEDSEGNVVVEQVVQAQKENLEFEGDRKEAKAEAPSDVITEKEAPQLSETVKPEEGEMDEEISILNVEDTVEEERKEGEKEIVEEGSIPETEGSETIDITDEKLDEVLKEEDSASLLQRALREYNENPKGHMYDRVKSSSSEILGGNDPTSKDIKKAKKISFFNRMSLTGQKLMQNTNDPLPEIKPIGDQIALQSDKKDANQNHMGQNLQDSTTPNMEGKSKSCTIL
Sequence of Protein fantom (Homo sapiens), Q68CZ1 A229T (Q68CZ1 whole entry A229T): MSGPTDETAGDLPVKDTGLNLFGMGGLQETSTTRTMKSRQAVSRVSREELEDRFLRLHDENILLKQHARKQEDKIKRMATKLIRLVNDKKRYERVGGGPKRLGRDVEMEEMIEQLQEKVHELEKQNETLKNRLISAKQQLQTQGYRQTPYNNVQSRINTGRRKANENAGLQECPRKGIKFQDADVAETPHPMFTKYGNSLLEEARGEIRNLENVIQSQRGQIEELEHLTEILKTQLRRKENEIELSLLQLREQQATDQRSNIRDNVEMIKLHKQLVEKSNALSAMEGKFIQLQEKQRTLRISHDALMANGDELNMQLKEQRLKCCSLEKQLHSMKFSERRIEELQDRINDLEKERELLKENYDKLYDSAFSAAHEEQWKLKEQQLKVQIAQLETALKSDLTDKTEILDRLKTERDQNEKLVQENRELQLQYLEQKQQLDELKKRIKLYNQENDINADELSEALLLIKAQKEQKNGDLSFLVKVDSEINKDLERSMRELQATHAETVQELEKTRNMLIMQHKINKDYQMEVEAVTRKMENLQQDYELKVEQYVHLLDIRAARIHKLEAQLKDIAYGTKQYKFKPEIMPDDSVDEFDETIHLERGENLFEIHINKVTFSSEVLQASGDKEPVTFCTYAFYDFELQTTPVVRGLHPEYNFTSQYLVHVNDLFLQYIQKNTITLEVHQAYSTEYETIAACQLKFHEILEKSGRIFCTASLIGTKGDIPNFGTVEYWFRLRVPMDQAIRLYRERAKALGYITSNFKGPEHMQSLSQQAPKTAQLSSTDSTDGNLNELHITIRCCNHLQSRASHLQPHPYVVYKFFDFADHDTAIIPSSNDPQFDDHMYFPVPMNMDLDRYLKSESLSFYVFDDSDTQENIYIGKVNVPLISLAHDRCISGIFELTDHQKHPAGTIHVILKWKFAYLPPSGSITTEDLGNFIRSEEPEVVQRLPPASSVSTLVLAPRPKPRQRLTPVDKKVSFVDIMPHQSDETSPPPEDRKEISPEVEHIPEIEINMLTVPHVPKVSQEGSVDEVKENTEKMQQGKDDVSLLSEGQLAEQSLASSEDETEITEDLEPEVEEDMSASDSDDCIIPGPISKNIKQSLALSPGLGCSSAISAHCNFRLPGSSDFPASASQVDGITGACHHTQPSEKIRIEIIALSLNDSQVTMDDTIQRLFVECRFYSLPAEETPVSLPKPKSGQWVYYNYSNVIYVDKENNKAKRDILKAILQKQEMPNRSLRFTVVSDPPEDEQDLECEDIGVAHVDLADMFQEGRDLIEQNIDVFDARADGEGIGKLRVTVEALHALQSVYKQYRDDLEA

The test concerns the target rpgr_mouse Rpgr (UniProt Q9R0X5).
Take “Protein fantom (Homo sapiens), Q68CZ1 T677I”: the “effect of a mutation on the interaction” value is on record as “with no effect”.

As to “Protein fantom (Homo sapiens), Q68CZ1 A229T”, the “effect of a mutation on the interaction” value was “decreasing interaction strength”.

“Protein fantom (Homo sapiens), Q68CZ1 T615P”: the “effect of a mutation on the interaction” value is on record as “decreasing interaction strength”.

As to “Protein fantom (Homo sapiens), Q68CZ1 A695P”, the “effect of a mutation on the interaction” value is recorded as “decreasing interaction strength”.
